From PMC9352680, “A comprehensive thermodynamic model for RNA binding by the Saccharomyces cerevisiae Pumilio protein PUF4”

T1: PUF4 RNA-binding domain (Saccharomyces cerevisiae, UniProt P25339 537-888)
T1 sequence: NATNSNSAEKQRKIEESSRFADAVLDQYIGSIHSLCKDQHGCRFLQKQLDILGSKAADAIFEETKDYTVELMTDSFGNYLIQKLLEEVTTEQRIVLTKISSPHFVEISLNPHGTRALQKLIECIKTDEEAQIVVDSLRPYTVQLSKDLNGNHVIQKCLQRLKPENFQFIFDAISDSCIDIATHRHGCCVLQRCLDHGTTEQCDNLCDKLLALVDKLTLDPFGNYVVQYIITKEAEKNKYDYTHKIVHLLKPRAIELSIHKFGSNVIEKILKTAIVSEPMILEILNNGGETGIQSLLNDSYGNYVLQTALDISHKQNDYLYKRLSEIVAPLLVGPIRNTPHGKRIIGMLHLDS

B1: Ie_S1_P3E.2_K3.1_C3.2_H3.1_A3.1_F3.1_[+8CCCT]_T3.2 (ssRNA)
RNA: UCUCUUCUUGUAUAUACCCUUAUCUCUU
B2: Ie_S1_P4E.1_K4.1_C4.1_H4.1_[+1CT]_A4.1_F4.1_T4.1 (ssRNA)
RNA: UCUCUUUCUGUAUAUUAUCUCUU
B3: Ie_S1_P4E.1_K4.1_C4.1_H4.1_[+1TC]_A4.1_F4.1_T4.1 (ssRNA)
RNA: UCUCUUUUCGUAUAUUAUCUCUU
B4: Ie_S1_P4E.1_K4.1_C4.1_H4.1_[+2TCT]_A4.1_F4.1_T4.1 (ssRNA)
RNA: UCUCUUUGUCUUAUAUUAUCUCUU
B5: Ie_S1_P4E.1_K4.1_C4.1_H4.1_[+3TCTCT]_A4.1_F4.1_T4.1 (ssRNA)
RNA: UCUCUUUGUUCUCUAUAUUAUCUCUU
B6: Ie_S1_P4E.1_K4.1_C4.1_H4.1_[+1CCC]_A4.1_F4.1_T4.1 (ssRNA)
RNA: UCUCUUUCCCGUAUAUUAUCUCUU
B7: Ie_S1_P3E.2_K3.1_C3.2_H3.1_A3.1_F3.1_[+8TTC]_T3.2 (ssRNA)
RNA: UCUCUUCUUGUAUAUAUUCUAUCUCUU
B8: Ie_S1_P4E.1_K4.1_C4.1_H4.1_[+1CCTCT]_A4.1_F4.1_T4.1 (ssRNA)
RNA: UCUCUUUCCUCUGUAUAUUAUCUCUU
B9: Ie_S1_P4E.1_K4.1_C4.1_H4.1_[+3TTCCT]_A4.1_F4.1_T4.1 (ssRNA)
RNA: UCUCUUUGUUUCCUAUAUUAUCUCUU
B10: Ie_S1_P3E.2_K3.1_C3.2_H3.1_A3.1_F3.1_[+8CTC]_T3.2 (ssRNA)
RNA: UCUCUUCUUGUAUAUACUCUAUCUCUU
B11: Ie_S1_P4E.1_K4.1_C4.1_H4.1_[+1T]_A4.1_F4.1_T4.1 (ssRNA)
RNA: UCUCUUUUGUAUAUUAUCUCUU
B12: Ie_S1_P4E.1_K4.1_C4.1_H4.1_[+2TC]_A4.1_F4.1_T4.1 (ssRNA)
RNA: UCUCUUUGUCUAUAUUAUCUCUU
B13: Ie_S1_P4E.1_K4.1_C4.1_H4.1_[+1CTCT]_A4.1_F4.1_T4.1 (ssRNA)
RNA: UCUCUUUCUCUGUAUAUUAUCUCUU
B14: Ie_S1_P4E.1_K4.1_C4.1_H4.1_[+2CTC]_A4.1_F4.1_T4.1 (ssRNA)
RNA: UCUCUUUGCUCUAUAUUAUCUCUU
B15: Ie_S1_P4E.1_K4.1_C4.1_H4.1_[+3TTT]_A4.1_F4.1_T4.1 (ssRNA)
RNA: UCUCUUUGUUUUAUAUUAUCUCUU
B16: Ie_S1_P4E.1_K4.1_C4.1_H4.1_[+1CTT]_A4.1_F4.1_T4.1 (ssRNA)
RNA: UCUCUUUCUUGUAUAUUAUCUCUU
B17: Ie_S1_P3E.2_K3.1_C3.2_H3.1_A3.1_F3.1_[+8TTCCT]_T3.2 (ssRNA)
RNA: UCUCUUCUUGUAUAUAUUCCUUAUCUCUU
B18: Ie_S1_P4E.1_K4.1_C4.1_H4.1_[+2TCTCT]_A4.1_F4.1_T4.1 (ssRNA)
RNA: UCUCUUUGUCUCUUAUAUUAUCUCUU
B19: Ie_S1_P4E.1_K4.1_C4.1_H4.1_[+1CCCTT]_A4.1_F4.1_T4.1 (ssRNA)
RNA: UCUCUUUCCCUUGUAUAUUAUCUCUU
B20: Ib_S1_P5E.1_K5.1_C5.1_H5.1_A5.1_[T6A]_[A7G]_F5.1_T5.1 (ssRNA)
RNA: UCUCUUUGUAUAGUUAUCUCUU
B21: Ie_S1_P4E.1_K4.1_C4.1_H4.1_[+1CTCTC]_A4.1_F4.1_T4.1 (ssRNA)
RNA: UCUCUUUCUCUCGUAUAUUAUCUCUU
B22: Ie_S1_P4E.1_K4.1_C4.1_H4.1_[+2TCC]_A4.1_F4.1_T4.1 (ssRNA)
RNA: UCUCUUUGUCCUAUAUUAUCUCUU
B23: Ie_S1_P4E.1_K4.1_C4.1_H4.1_[+1TTCC]_A4.1_F4.1_T4.1 (ssRNA)
RNA: UCUCUUUUUCCGUAUAUUAUCUCUU
B24: Ie_S1_P3E.2_K3.1_C3.2_H3.1_A3.1_F3.1_[+8TCC]_T3.2 (ssRNA)
RNA: UCUCUUCUUGUAUAUAUCCUAUCUCUU
B25: Ie_S1_P4E.1_K4.1_C4.1_H4.1_[+2CCTC]_A4.1_F4.1_T4.1 (ssRNA)
RNA: UCUCUUUGCCUCUAUAUUAUCUCUU
B26: Ie_S1_P4E.1_K4.1_C4.1_H4.1_[+2CC]_A4.1_F4.1_T4.1 (ssRNA)
RNA: UCUCUUUGCCUAUAUUAUCUCUU
B27: Ie_S1_P4E.1_K4.1_C4.1_H4.1_[+1TT]_A4.1_F4.1_T4.1 (ssRNA)
RNA: UCUCUUUUUGUAUAUUAUCUCUU
B28: Ie_S1_P4E.1_K4.1_C4.1_H4.1_[+3TC]_A4.1_F4.1_T4.1 (ssRNA)
RNA: UCUCUUUGUUCAUAUUAUCUCUU
B29: Ie_S1_P4E.1_K4.1_C4.1_H4.1_[+2CTCT]_A4.1_F4.1_T4.1 (ssRNA)
RNA: UCUCUUUGCUCUUAUAUUAUCUCUU
B30: Ie_S1_P3E.2_K3.1_C3.2_H3.1_A3.1_F3.1_[+8TCTCT]_T3.2 (ssRNA)
RNA: UCUCUUCUUGUAUAUAUCUCUUAUCUCUU
B31: Ie_S1_P4E.1_K4.1_C4.1_H4.1_[+1TCT]_A4.1_F4.1_T4.1 (ssRNA)
RNA: UCUCUUUUCUGUAUAUUAUCUCUU
B32: Ie_S1_P3E.2_K3.1_C3.2_H3.1_A3.1_F3.1_[+8TTT]_T3.2 (ssRNA)
RNA: UCUCUUCUUGUAUAUAUUUUAUCUCUU
B33: Ie_S1_P4E.1_K4.1_C4.1_H4.1_[+3TTCC]_A4.1_F4.1_T4.1 (ssRNA)
RNA: UCUCUUUGUUUCCAUAUUAUCUCUU
B34: Ie_S1_P3E.2_K3.1_C3.2_H3.1_A3.1_F3.1_[+8TCTC]_T3.2 (ssRNA)
RNA: UCUCUUCUUGUAUAUAUCUCUAUCUCUU
B35: Ie_S1_P3E.2_K3.1_C3.2_H3.1_A3.1_F3.1_[+8CCCTT]_T3.2 (ssRNA)
RNA: UCUCUUCUUGUAUAUACCCUUUAUCUCUU
B36: Ie_S1_P4E.1_K4.1_C4.1_H4.1_[+2TT]_A4.1_F4.1_T4.1 (ssRNA)
RNA: UCUCUUUGUUUAUAUUAUCUCUU
B37: Ie_S1_P4E.1_K4.1_C4.1_H4.1_[+1CCT]_A4.1_F4.1_T4.1 (ssRNA)
RNA: UCUCUUUCCUGUAUAUUAUCUCUU
B38: Ie_S1_P4E.1_K4.1_C4.1_H4.1_[+2TTCC]_A4.1_F4.1_T4.1 (ssRNA)
RNA: UCUCUUUGUUCCUAUAUUAUCUCUU
B39: Ie_S1_P5E.1_K5.1_C5.1_H5.1_[+4C]_A5.1_F5.1_T5.1 (ssRNA)
RNA: UCUCUUUGUACUUAUUAUCUCUU
B40: Ie_S1_P4E.1_K4.1_C4.1_H4.1_[+2C]_A4.1_F4.1_T4.1 (ssRNA)
RNA: UCUCUUUGCUAUAUUAUCUCUU
B41: Ie_S1_P4E.1_K4.1_C4.1_H4.1_A4.1_[+6C]_F4.1_T4.1 (ssRNA)
RNA: UCUCUUUGUAUACUUAUCUCUU
B42: Ie_S1_P4E.1_K4.1_C4.1_H4.1_[+2CCT]_A4.1_F4.1_T4.1 (ssRNA)
RNA: UCUCUUUGCCUUAUAUUAUCUCUU
B43: Ie_S1_P4E.1_K4.1_C4.1_H4.1_[+2CTCTC]_A4.1_F4.1_T4.1 (ssRNA)
RNA: UCUCUUUGCUCUCUAUAUUAUCUCUU
B44: If_S1_P5E.1_K5.1_C5.1_H5.1_A5.1_F5.1_T5.1 (ssRNA)
RNA: UCUCUUUGUAUUAUUAUCUCUU
B45: Ie_S1_P4E.1_K4.1_C4.1_H4.1_[+3CTCTC]_A4.1_F4.1_T4.1 (ssRNA)
RNA: UCUCUUUGUCUCUCAUAUUAUCUCUU
B46: Ie_S1_P3E.2_K3.1_C3.2_H3.1_A3.1_F3.1_[+8CTCTC]_T3.2 (ssRNA)
RNA: UCUCUUCUUGUAUAUACUCUCUAUCUCUU
B47: Ie_S1_P4E.1_K4.1_C4.1_H4.1_[+2CCCT]_A4.1_F4.1_T4.1 (ssRNA)
RNA: UCUCUUUGCCCUUAUAUUAUCUCUU
B48: Ie_S1_P4E.1_K4.1_C4.1_H4.1_[+1TTCCT]_A4.1_F4.1_T4.1 (ssRNA)
RNA: UCUCUUUUUCCUGUAUAUUAUCUCUU
B49: Ie_S1_P4E.1_K4.1_C4.1_H4.1_[+1TCTC]_A4.1_F4.1_T4.1 (ssRNA)
RNA: UCUCUUUUCUCGUAUAUUAUCUCUU
B50: Ie_S1_P4E.1_K4.1_C4.1_H4.1_A4.1_F4.1_[+8T]_T4.1 (ssRNA)
RNA: UCUCUUUGUAUAUUUAUCUCUU
B51: Ie_S1_P4E.1_K4.1_C4.1_H4.1_[+3TCTC]_A4.1_F4.1_T4.1 (ssRNA)
RNA: UCUCUUUGUUCUCAUAUUAUCUCUU
B52: Ie_S1_P4E.1_K4.1_C4.1_H4.1_[+3TCT]_A4.1_F4.1_T4.1 (ssRNA)
RNA: UCUCUUUGUUCUAUAUUAUCUCUU
B53: Ie_S1_P4E.1_K4.1_C4.1_H4.1_[+1CCCT]_A4.1_F4.1_T4.1 (ssRNA)
RNA: UCUCUUUCCCUGUAUAUUAUCUCUU
B54: Ie_S1_P4E.1_K4.1_C4.1_H4.1_[+3CTCT]_A4.1_F4.1_T4.1 (ssRNA)
RNA: UCUCUUUGUCUCUAUAUUAUCUCUU
B55: Ie_S1_P4E.1_K4.1_C4.1_H4.1_[+1TCTCT]_A4.1_F4.1_T4.1 (ssRNA)
RNA: UCUCUUUUCUCUGUAUAUUAUCUCUU
B56: Ie_S1_P4E.1_K4.1_C4.1_H4.1_[+1TTC]_A4.1_F4.1_T4.1 (ssRNA)
RNA: UCUCUUUUUCGUAUAUUAUCUCUU
B57: Ie_S1_P4E.1_K4.1_C4.1_H4.1_[+2CT]_A4.1_F4.1_T4.1 (ssRNA)
RNA: UCUCUUUGCUUAUAUUAUCUCUU
B58: Ie_S1_P4E.1_K4.1_C4.1_H4.1_[+3CTC]_A4.1_F4.1_T4.1 (ssRNA)
RNA: UCUCUUUGUCUCAUAUUAUCUCUU
B59: Ie_S1_P3E.2_K3.1_C3.2_H3.1_A3.1_F3.1_[+8TTCC]_T3.2 (ssRNA)
RNA: UCUCUUCUUGUAUAUAUUCCUAUCUCUU
B60: Ic_S2_P3E.1_K3.1_C3.1_H3.1_A3.1_F3.1_[T7G]_[A8C]_T3.1 (ssRNA)
RNA: UUUGAUUAAUAUGAUAUCGUUCUUUCUUGUAUAGCUUCUUUCUCGAUAUCAUAUUAAUCUUU
B61: Ic_S2_P3E.1_K3.1_C3.1_H3.1_A3.1_F3.1_[T7G]_[A8T]_T3.1 (ssRNA)
RNA: UUUGAUUAAUAUGAUAUCGUUCUUUCUUGUAUAGUUUCUUUCUCGAUAUCAUAUUAAUCUUU
B62: Ie_S1_P4E.1_K4.1_C4.1_H4.1_[+2CCTCT]_A4.1_F4.1_T4.1 (ssRNA)
RNA: UCUCUUUGCCUCUUAUAUUAUCUCUU

Target: T1, PUF4 RNA-binding domain
Experiment: Mg; RNA-MaP; 20 mM Na-HEPES pH 7.4, 30 mM KOAc, 0.75 mM MgCl2, 0.1% Tween-20, 5% glycerol, 0.1 mg/mL BSA, 2 mM DTT; 25 C; 0.0125-409.6 nM protein
Conditions: tags: N-His6-TEV cleaved; C-SNAP kept, Cy3B-labelled; label: tethered on chip by stalled RNA polymerase

Binder | Kd
B1 | 12.3 nM
B2 | 0.72 nM
B3 | 24.4 nM
B4 | 45.9 nM
B5 | 49.6 nM
B6 | 22.1 nM
B7 | 4.4 nM
B8 | 0.539 nM
B9 | 58.7 nM
B10 | 11.7 nM
B11 | 0.567 nM
B12 | 82.9 nM
B13 | 0.881 nM
B14 | 583 nM
B15 | 32.9 nM
B16 | 0.599 nM
B17 | 6.43 nM
B18 | 134 nM
B19 | 0.454 nM
B20 | 7.36 nM
B21 | 27.9 nM

Binder | Kd
B22 | 40.4 nM
B23 | 36.3 nM
B24 | 10.2 nM
B25 | 1010 nM
B26 | 1390 nM
B27 | 0.914 nM
B28 | 134 nM
B29 | 984 nM
B30 | 8.49 nM
B31 | 0.546 nM
B32 | 6.71 nM
B33 | 83.7 nM
B34 | 5.63 nM
B35 | 9.52 nM
B36 | 60.9 nM
B37 | 0.583 nM
B38 | 101 nM
B39 | 14.3 nM
B40 | 107 nM
B41 | 4.35 nM
B42 | 1330 nM

Binder | Kd
B43 | 733 nM
B44 | 4.68 nM
B45 | 948 nM
B46 | 11.7 nM
B47 | 1080 nM
B48 | 1.18 nM
B49 | 19.7 nM
B50 | 2.39 nM
B51 | 103 nM
B52 | 27.2 nM
B53 | 1.2 nM
B54 | 121 nM
B55 | 0.586 nM
B56 | 20.9 nM
B57 | 870 nM
B58 | 37.3 nM
B59 | 6.86 nM
B60 | 109 nM
B61 | 25.9 nM
B62 | 2130 nM
